As a reminder, the koff is the rate constant with which the complex falls apart. Low values mean a long-lived complex, high ones a short-lived complex. As usually defined, the Kd is the equilibrium constant for the complex coming apart.

First the molecules themselves.
B2: Pertactin on the surface of Bvg+ B. bronchiseptica RB53 (receptor)
chain: DWNNQSIIKAGERQHGIHIKQSDGAGVRTATGTTIKVSGRQAQGVLLENPAAELRFQNGSVTSSGQLFDEGVRRFLGTVTVKAGKLVADHATLANVSDTRDDDGIALYVAGEQAQASIADSTLQGAGGVRVERGANVTVQRSTIVDGGLHIGTLQPLQPEDLPPSRVVLGDTSVTAVPASGAPAAVSVFGANELTVDGGHITGGRAAGVAAMDGAIVHLQRATIRRGDAPAGGAVPGGAVPGGAVPGGFGPLLDGWYGVDVSDSTVDLAQSIVEAPQLGAAIRAGRGARVTVSGGSLSAPHGNVIETGGGARRFPPPASPLSITLQAGARAQGRALLYRVLPEPVKLTLAGGAQGQGDIVATELPPIPGASSGPLDVALASQARWTGATRAVDSLSIDNATWVMTDNSNVGALRLASDGSVDFQQPAEAGRFKVLMVDTLAGSGLFRMNVFADLGLSDKLVVMRDASGQHRLWVRNSGSEPASANTMLLVQTPRGSAATFTLANKDGKVDIGTYRYRLAANGNGQWSLVGAKAPPAPKPAPQPGPQPGPQPPQPPQPPQRQPEAPAPQPPAGRELSAAANAAVNTGGVGLASTLWYAESNALSKRLGELRLNPDAGGAWGRGFAQRQQLDNRAGRRFDQKVAGFELGADHAVAVAGGRWHLGGLAGYTRGDRGFTGDGGGHTDSVHVGGYATYIANSGFYLDATLRASRLENDFKVAGSDGYAVKGKYRTHGVGASLEAGRRFAHADGWFLEPQAELAVFRVGGGAYRAANGLRVRDEGGSSVLGRLGLEVGKRIELAGGRQVQPYIKASVLQEFDGAGTVRTNGIAHRTELRGTRAELGLGMAAALGRGHSLYASYEYSKGPKLAMPWTFHAGYRYSW

Experiment [1] has as its target T1, Biotinylated Prn-E (pertactin residues 38-640 with N-terminal biotinylation sequence) (B. bronchiseptica, UniProt Q03035 38-640, biotin (in vivo biotinylation of the N-terminal biotinylation sequence)).
T1 chain: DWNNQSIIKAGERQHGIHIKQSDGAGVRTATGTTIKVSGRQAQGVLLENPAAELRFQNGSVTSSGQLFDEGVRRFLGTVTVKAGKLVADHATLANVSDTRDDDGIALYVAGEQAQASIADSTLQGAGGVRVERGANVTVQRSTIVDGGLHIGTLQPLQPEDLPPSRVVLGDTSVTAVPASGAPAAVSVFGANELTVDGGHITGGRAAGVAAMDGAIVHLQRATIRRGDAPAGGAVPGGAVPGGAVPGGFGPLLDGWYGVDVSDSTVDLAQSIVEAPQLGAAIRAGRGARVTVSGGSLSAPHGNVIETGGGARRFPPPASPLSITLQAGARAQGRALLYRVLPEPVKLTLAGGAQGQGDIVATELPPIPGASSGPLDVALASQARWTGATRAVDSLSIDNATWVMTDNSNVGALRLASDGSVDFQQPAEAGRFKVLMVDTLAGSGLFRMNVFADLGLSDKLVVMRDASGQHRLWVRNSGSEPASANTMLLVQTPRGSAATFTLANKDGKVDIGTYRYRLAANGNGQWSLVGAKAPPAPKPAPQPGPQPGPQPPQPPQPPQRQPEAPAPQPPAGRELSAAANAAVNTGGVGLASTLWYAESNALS
Briefly: SPR. In general terms: Surface plasmon resonance follows binding to a sensor surface in real time, without labels.

Experiment [2] has as its target B2.
Experiment [3] deals with BPP-6 phage displaying Mtd-P6 (Bordetella bacteriophage BPP-6, UniProt Q775D6).

B1: BPP-1 phage displaying Mtd-P1 (other)
chain: MSTAVQFRGGTTAQHATFTGAAREITVDTDKNTVVVHDGATAGGFPLARHDLVKTAFIKADKSAVAFTRTGNATASIKAGTIVEVNGKLVQFTADTAITMPALTAGTDYAIYVCDDGTVRADSNFSAPTGYTSTTARKVGGFHYAPGSNAAAQAGGNTTAQINEYSLWDIKFRPAALDPRGMTLVAGAFWADIYLLGVNHLTDGTSKYNVTIADGSASPKKSTKFGGDGSAAYSDGAWYNFAEVMTHHGKRLPNYNEFQALAFGTTEATSSGGTDVPTTGVNGTGATSAWNIFTSKWGVVQASGCLWTWGNEFGGVNGASEYTANTGGRGSVYAQPAAALFGGAWNGTSLSGSRAALWYSGPSFSFAFFGARGVCDHLILE
Molecule B1 displayed a koff in experiment [1] of 0.000636 s⁻¹. Further, in experiment [2], binding was characterised by a dissociation constant (Kd) of 3.7 pM.
B2 returned a Kd in experiment [3] of 0.059 pM.

Source of the values: publication PMC2408619 (2008).
